Laboratory results published in paper PMC10063603, “Release of frustration drives corneal amyloid disaggregation by brain chaperone” (Communications Biology, 2023).
No end group written: not given here.

B1: TGFBIp A620D peptide (residues 611-633), recombinant, uniformly 13C,15N-labelled, as amyloid fibril (peptide, UniProt Q15582 611-633, looked up)
peptide: EPVAEPDIMDTNGVVHVITNVLQ
modifications: also: uniformly 13C,15N-labelled
notes: also called A620D fibrils; source: E. coli BL21 (DE3), His-tag-BEAK-tag-TEV fusion, purified (Ni-NTA, TEV cleavage, reverse phase-HPLC); not shown: His-tag, N-terminal, cleaved; BEAK tag, N-terminal, cleaved
B2: human WT lipocalin-type prostaglandin D synthase (L-PGDS) (natural protein)
chain: APEAQVSVQPNFQQDKFLGRWFSAGLASNSSWLREKKAALSMCKSVVAPATDGGLNLTSTFLRKNQCETRTMLLQPAGSLGSYSYRSPHWGSTYSVSVVETDYDQYALLYSQGSKGPGEDFRMATLYSRTQTPRAELKEKFTAFCKAQGFTEDTIVFLPQTDKCMTEQ
notes: Lipocalin-type prostaglandin D synthase (L-PGDS), human, wild type; 15N-labelled for the solution NMR; loaded with heme for the cryo-EM micrographs; unlabelled for ssNMR and ThT assays; also called WT L-PGDS; source: E. coli Rosetta 2 DE3 (pNIC-CH vector), purified (Superdex 75 in PBS)
B3: TGFBIp G623R peptide (residues 611-633 of the 4th FAS-1 domain), synthetic, as amyloid fibril (peptide)
peptide: EPVAEPDIMATNRVVHVITNVLQ
notes: Assayed as preformed amyloid fibril (many copies); also called G623R fibril; TGFBIp G623R fibril; source: synthetic peptide, bought: Synpeptide Co Ltd; fibrils formed in PBS at 37 °C, 180 rpm
B4: TGFBIp G623R peptide (residues 611-633), recombinant, uniformly 13C,15N-labelled, as amyloid fibril (peptide)
peptide: EPVAEPDIMATNRVVHVITNVLQ
modifications: also: uniformly 13C,15N-labelled
notes: also called double-labeled G623R fibrils; 13C-15N labeled G623R fibril; source: E. coli BL21 (DE3), His-tag-BEAK-tag-TEV fusion, purified (Ni-NTA, TEV cleavage, reverse phase-HPLC); fibrils seeded with 5% (w/v) synthetic G623R seeds in 20 mM TRIS, 37 °C; not shown: His-tag, N-terminal, cleaved; BEAK tag, N-terminal, cleaved

Columns and labels:
[1] = target: the molecule itself; test: solid-state NMR; 13C,15N-labelled A620D fibrils in a 1.9 mm rotor; 600 MHz, MAS 13333 Hz, 12 °C; NCA spectrum
[2] = target: B3; test: cell-based or functional assay
[3] = target: B3; test: cryo-EM micrographs; L-PGDS-heme complex (heme as contrast enhancer) mixed with G623R fibrils at 1:10; stoichiometry counted from the images; conditions: both partners purified
[4] = target: B2; test: NMR titration; 2D 1H-15N HSQC of 15N-labelled L-PGDS without and with G623R fibrils at a molar ratio of 1:4 (L-PGDS: fibrils), 600 MHz; conditions: both partners purified
[5] = target: the molecule itself; test: cryo-EM structure; G623R fibrils, Titan Krios 300 kV, helical reconstruction in RELION-3.1, map at 4.9 Å; model built with the ssNMR restraints
[6] = target: the molecule itself; test: solid-state NMR; 13C,15N-labelled G623R fibrils packed in a 1.9 mm rotor; 18.8 T, MAS 17.857 kHz, 12 °C; NCA, NCO, DARR (20 and 75 ms), NCACX, NCOCX, CANCO; repeating unit calculated with CYANA
[7] = target: B2; test: solid-state NMR; unlabelled L-PGDS added to preformed 13C,15N-labelled G623R fibrils at 1:10; 1D 13C CP and 2D DARR (20 and 75 ms) compared with fibrils alone; conditions: both partners purified

Binder: B1
binding result [1]: binds

Binder: B2
persistence length of G623R fibrils in cryo-EM micrographs without and with L-PGDS [2]: 4 fold
reduction of ThT intensity of preformed G623R fibrils after 24 h with L-PGDS at molar ratios of 1:2, 1:5 and 1:10 (52%, 27%, 19%) [2]: 52%
stoichiometry N [3]: 7 peptides per L-PGDS

Binder: B3
binding result [4]: binds
binding result [5]: binds

Binder: B4
binding result [6]: binds
binding result [7]: binds
